Entries after “also recorded” stand apart in the source; their conditions may differ.

In one test the target is T1, BMP-4 (Homo sapiens, UniProt P12644).
T1 construct: purchased R&D Systems 314-BM
T1 sequence (P12644 293-408): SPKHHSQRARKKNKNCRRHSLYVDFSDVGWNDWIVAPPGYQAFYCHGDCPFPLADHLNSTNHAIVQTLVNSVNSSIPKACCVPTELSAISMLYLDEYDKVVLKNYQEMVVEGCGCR
The test can be described thus: In vitro interaction test, variant B: immobilized RGMA-Fc fusion proteins, detection of BMP-4 binding. How it is done: Test Method 4: In Vitro Interaction Test for Determining the Interaction between RGMA and BMP-2 and -4
The interaction tests were carried out as described below:
Variant B: Immobilization of Various RGMA-Fc Fusion Proteins and Detection of the Binding of the BMP-2/ or -4 Protein
Immunoplate Cert. MaxiSorp F96 (Nunc, 439454)
RGMA-Fc fragments • Volume used: 2.5 μg/mL in Na2CO3; addition: 50 μL per well • 1 hour at 37° C. in damp chamber
3. Washing step: • Wash 3× with PBS/0.02% Tween 20
4. Blocking: • 3% BSA in PBS/0.02% Tween, 1 hour at 37° C. in damp chamber • Addition : 200 μL per well, incubation: 1 hour at 37° C. in damp chamber
Recombinant human BMP-2, Catalog No.: 355-BM, Company: R&D Systems; or
Recombinant human RGM A, R&D Systems; Prod. #2495-RM,
recombinant human BMP-4, Catalog No.: 314-BM, Company: R&D Systems;
Concentration in each case: 10 μg/mL
Dilution steps: in each case 1:2 with PBS/0.02% Tween 20
6. Washing step: • Wash 3× with PBS/0.02% Tween 20
Anti-human BMP-4 biotin antibody; Catalog No.: BAM7572, 1:200 in 1% BSA-PBS-T
8. Washing step: • Wash 3× with PBS/0.02% Tween 20
10. Washing step: • Wash 3× with PBS/0.02% Tween 20
ImmunoPure TMB substrate kit; (Pierce, #34021) • Development period: approximately 1-30 minutes • 1:1 mixture of […]; addition: 50 μL per well
12. Stop: • 2.5 M H2SO4; addition: 50 μL per well
The test was conducted according to test method 4, variant B above, with immobilization of the fusion proteins (1 mg/mL). The binding of BMP-4 was detected using anti-BMP-4 biotin antibodies.
The test was conducted according to test method 4, variant B above, with immobilization of the fusion proteins (1 mg/mL). The binding of BMP-4 and -2 was detected using anti-BMP-4 and anti-BMP-2 biotin antibodies, respectively.

The test system of another test is SH-SY5Y cells. The test can be described thus: Neurite growth assay using SH-SY5Y cells (test method 1). The format is cell-based, human. To be noted: FIG. 7A. The source says: Test Method 1: Illustration of the Effect of RGM Peptides in the Neurite Growth Assay, Using SH-SY5Y Cells
SH-SY5Y cells are human neuroblastoma cells. Blastomas are embryonic tumors which originate during tissue and organ formation. The origin of the blastoma cells is frequently unknown, since in early embryonic states the differentiation of many cells is still premature; i.e., the blastoma cells are a heterogeneous cell population. The cells of a neuroblastoma, referred to as neuroblasts, originate from the neural crest (structure of the embryonic state) from the autonomous nerve tissue, and are practically arrested in an immature stage. The cells in the present case originated from a clonal subculture of the neuroepitheliomal cell line SK-N-SH which were isolated in 1970 in a bone marrow biopsy of a child with metastases of the neuroblastomas.
Culture Medium for SH-SY5Y Cells (ECACC No. 94030304)
The medium was sterile-filtered using a Nunc 500-mL filter, and was stored in a refrigerator at 4° C. until used. Before use, the medium was heated to 37° C. in a water bath.
SH-SY5Y cells are epithelial, neuron-like cells which slowly adherently grow in a monolayer and never attain a confluence of 100% (maximum 80%). The cell culture was split 1:3 two times per week. Isolation of the cells requires incubation with trypsin for 1-3 minutes in an incubator.
Since this is a population of still immature precursor cells, it is possible to differentiate the cells using retinoic acid, so that a certain percentage of the cells acquire neurite-like extensions. For this purpose the culture was incubated in the medium with 10 μM retinoic acid directly in the culture dish or flask, depending on the test, for 3 days.
Microtiter plates (96-well) (containing collagen I-coated plates) were additionally coated with the hRGM A fragments. After washing two times with PBS the cells were seeded. […] In the quantitative analysis the SH-SY5Y cells grown on hRGM A fragments were compared to SH-SY5Y grown on collagen I alone. The neurite length of the cells was automatically measured and used for the analysis. […]

Test [1] deals with BMP signalling (rhBMP-2-induced luciferase activity). The test can be described thus: BRE-Luc assay on BMP signalling in BMP-responsive C3H10-B12 cells. The format is cell-based. How it is done: Evaluation of the Agonistic or Antagonistic Effect of h RMG A on BMP Signalling using BRE-Luc Assay
a) Materials: • Three compounds were provided at 200 μg/ml.
fragment #788 (IgK/hRGM A 47-422/Xa cleavage site/Fc) • recombinant h BMP-2 (from CHO cells; #355-BM) and monoclonal anti-human BMP2/4 antibodies (#MAB3552) were obtained from R&D Systems Europe, Lille, France • Bright-Glo Luciferase assay kit were purchased from Promega
All experiments were performed in triplicate, and were repeated at two separate times.

B1: fragment #786: Fc fusion protein of human RGM A amino acids 47-168 (protein)
chain: PCKILKCNSEFWSATSGSHAPASDDTPEFCAALRSYALCTRRTARTCRGDLAYHSAVHGIEDLMSQHNCSKDGPTSQPRLRTLPPAGDSQERSDSPEICHYEKSFHKHSATPNYTHCGLFGD
modifications: left off: small tags and cut ends; a dimerising Fc or GST
Turning to B1, the “binding of BMP-4” value with BMP-4 (Working Example 1, FIG. 3, anti-BMP-4 biotin antibodies) is recorded as “more significant binding”; with BMP-4 (Working Example 2, FIG. 4, anti-BMP-4 biotin antibodies), “more significant binding”. Also, in the test on SH-SY5Y cells, the “inhibition of neurite growth” value is “inhibit the neurite growth”. For the same molecule, in the test on SH-SY5Y cells (listed as 47-168-Fc), the “inhibitory activity in neurite growth test compared with 316-386-Fc” value is given as “much stronger effect; also recorded: significantly higher activity”. Further, the “effect on BMP-2-induced luciferase activity” value in test [1] (combined with rhBMP-2 at 50 ng/ml, 24 h, listed as #786) is “dose-dependent inhibition; also recorded: inhibited the rhBMP-2-induced activity in a dose dependent fashion”. The “inhibition of the rhBMP-2-induced activity” value in test [1] (compounds at 10 μg/ml, rhBMP-2 at 50 ng/ml) is 88%. Moreover, in test [1] (rhBMP-2 at 50 ng/ml), the “equivalent dose for 50% of inhibition (ED50)” value is 0.1 µg/mL.

Values taken from patent US20100322948A1, “Bone morphogenetic protein (BMP)-binding domains of proteins of the repulsive guidance molecule (RGM) protein family and functional fragments thereof, and use of same” (ABBOTT GMBH & CO. KG, priority 2007, published 2010).
